Measurements published in IntAct's records for PubMed 22274616.

B1: Protein PML (Homo sapiens), P29590 (parent)
chain: MEPAPARSPRPQQDPARPQEPTMPPPETPSEGRQPSPSPSPTERAPASEEEFQFLRCQQCQAEAKCPKLLPCLHTLCSGCLEASGMQCPICQAPWPLGADTPALDNVFFESLQRRLSVYRQIVDAQAVCTRCKESADFWCFECEQLLCAKCFEAHQWFLKHEARPLAELRNQSVREFLDGTRKTNNIFCSNPNHRTPTLTSIYCRGCSKPLCCSCALLDSSHSELKCDISAEIQQRQEELDAMTQALQEQDSAFGAVHAQMHAAVGQLGRARAETEELIRERVRQVVAHVRAQERELLEAVDARYQRDYEEMASRLGRLDAVLQRIRTGSALVQRMKCYASDQEVLDMHGFLRQALCRLRQEEPQSLQAAVRTDGFDEFKVRLQDLSSCITQGKDAAVSKKASPEAASTPRDPIDVDLPEEAERVKAQVQALGLAEAQPMAVVQSVPGAHPVPVYAFSIKGPSYGEDVSNTTTAQKRKCSQTQCPRKVIKMESEEGKEARLARSSPEQPRPSTSKAVSPPHLDGPPSPRSPVIGSEVFLPNSNHVASGAGEAEERVVVISSSEDSDAENSSSRELDDSSSESSDLQLEGPSTLRVLDENLADPQAEDRPLVFFDLKIDNETQKISQLAAVNRESKFRVVIQPEAFFSIYSKAVSLEVGLQHFLSFLSSMRRPILACYKLWGPGLPNFFRALEDINRLWEFQEAISGFLAALPLIRERVPGASSFKLKNLAQTYLARNMSERSAMAAVLAMRDLCRLLEVSPGPQLAQHVYPFSSLQCFASLQPLVQAAVLPRAEARLLALHNVSFMELLSAHRRDRQGGLKKYSRYLSLQTTTLPPAQPAFNLQALGTYFEGLLEGPALARAEGVSTPLAGRGLAERASQQS

Variants of: B1
Conditions: with per2_mouse Per2, O54943
Chain of per2_mouse Per2, O54943 (O54943 whole entry): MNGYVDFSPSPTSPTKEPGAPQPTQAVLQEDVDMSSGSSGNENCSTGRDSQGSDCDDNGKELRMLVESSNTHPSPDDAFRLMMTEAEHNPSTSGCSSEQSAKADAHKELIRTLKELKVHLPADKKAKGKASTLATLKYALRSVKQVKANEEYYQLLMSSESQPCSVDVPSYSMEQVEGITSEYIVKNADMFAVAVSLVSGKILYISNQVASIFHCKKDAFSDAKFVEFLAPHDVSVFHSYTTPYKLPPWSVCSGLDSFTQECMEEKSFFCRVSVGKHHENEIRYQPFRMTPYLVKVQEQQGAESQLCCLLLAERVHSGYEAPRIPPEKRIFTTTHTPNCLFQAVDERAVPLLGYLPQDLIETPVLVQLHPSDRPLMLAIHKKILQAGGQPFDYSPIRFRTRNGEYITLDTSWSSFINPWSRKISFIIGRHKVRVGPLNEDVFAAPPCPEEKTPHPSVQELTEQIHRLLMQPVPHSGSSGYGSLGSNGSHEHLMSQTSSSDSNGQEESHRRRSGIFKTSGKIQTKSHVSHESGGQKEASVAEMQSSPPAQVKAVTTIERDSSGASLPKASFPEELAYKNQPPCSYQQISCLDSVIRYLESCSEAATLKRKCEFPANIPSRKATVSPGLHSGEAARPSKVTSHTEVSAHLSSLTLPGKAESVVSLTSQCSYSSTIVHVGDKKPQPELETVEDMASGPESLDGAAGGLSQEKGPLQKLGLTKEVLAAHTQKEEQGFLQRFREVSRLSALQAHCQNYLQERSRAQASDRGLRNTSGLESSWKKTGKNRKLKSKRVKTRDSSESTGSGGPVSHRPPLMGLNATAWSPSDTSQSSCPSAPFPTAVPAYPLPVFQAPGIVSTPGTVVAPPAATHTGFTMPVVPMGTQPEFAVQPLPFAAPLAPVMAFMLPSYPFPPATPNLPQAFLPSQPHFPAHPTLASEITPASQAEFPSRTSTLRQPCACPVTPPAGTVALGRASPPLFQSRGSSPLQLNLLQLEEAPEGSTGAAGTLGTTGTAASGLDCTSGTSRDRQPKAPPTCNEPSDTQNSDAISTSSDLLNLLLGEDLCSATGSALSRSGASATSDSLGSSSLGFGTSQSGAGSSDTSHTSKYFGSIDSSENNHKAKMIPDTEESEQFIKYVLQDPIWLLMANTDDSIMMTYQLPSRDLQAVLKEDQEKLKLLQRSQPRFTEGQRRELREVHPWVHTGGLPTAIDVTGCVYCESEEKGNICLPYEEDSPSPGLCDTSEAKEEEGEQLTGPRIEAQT

| effect of a mutation on the interaction | Variant |
| --- | --- |
| decreasing interaction strength | K487R |
